From patent US20220298217A1 (FLAGSHIP PIONEERING INNOVATIONS VI, published 2022)

T1: PTHR1 on CHO-K1/Ga15/PTHR1 cells (UniProt Q03431 27-593, limits assumed)
T1 sequence (looked up): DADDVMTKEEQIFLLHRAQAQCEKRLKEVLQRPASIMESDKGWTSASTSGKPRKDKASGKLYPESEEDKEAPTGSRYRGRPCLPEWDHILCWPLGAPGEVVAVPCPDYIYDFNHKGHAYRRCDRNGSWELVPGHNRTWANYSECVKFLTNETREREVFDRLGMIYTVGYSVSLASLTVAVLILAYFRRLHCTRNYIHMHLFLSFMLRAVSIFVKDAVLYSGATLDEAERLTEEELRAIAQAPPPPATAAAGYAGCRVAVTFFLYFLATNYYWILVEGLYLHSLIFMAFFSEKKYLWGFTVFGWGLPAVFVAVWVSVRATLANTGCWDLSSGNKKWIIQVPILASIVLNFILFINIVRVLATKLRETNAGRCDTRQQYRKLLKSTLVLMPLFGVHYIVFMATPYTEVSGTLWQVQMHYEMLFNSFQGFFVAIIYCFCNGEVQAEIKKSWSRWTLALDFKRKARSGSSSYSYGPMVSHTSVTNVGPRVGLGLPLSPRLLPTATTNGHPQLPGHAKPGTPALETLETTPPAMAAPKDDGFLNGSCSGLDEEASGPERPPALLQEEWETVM

T2: Flag-PTHR1-YFP (UniProt Q03431 27-593)
T2 sequence (looked up): T1 sequence (looked up)

B1: R2-28 (peptide)
peptide: AVAEIQLMHQRAKWGLDLELAVKLQEILKDVL
B2: R1-96 (peptide)
peptide: AVAEIQLMHQRAKWRAEYELREMLLRLLEEIF
B3: R2-29 (peptide)
peptide: AVAEIQLMHQRAKWKLELELKEKIRKLLEDLL
B4: I3 (R1-97) (peptide)
peptide: AVAEIQLMHQRAKWELEFELFREFLKLLVDFF
B5: LA-PM-FL (R1-81) (peptide)
peptide: AVAEIQLMHQRAKWIQDARRRAFLHKLIAEIH
B6: R2-49 (peptide)
peptide: GVAELQLMHDLAKIKLELELKVKLLEILKDVY
B7: R2-46 (peptide)
peptide: AVAEIQLMHQRAKWSILEELLKILTALLDEYI
B8: R2-39 (peptide)
peptide: AVAEIQLMHQRAKWELQEIGIKITLDLLEAYL
B9: R2-32 (peptide)
peptide: AVAEIQLMHQRAKWKQELELEEKNKKILEDVY
B10: R2-47 (peptide)
peptide: AVAEIQLMHQRAKWDVLIELAKLLAELLRRYH
B11: R2-33 (peptide)
peptide: AVAEIQLMHQRAKWLNELRLKEEMRKILEDVY
B12: R2-45 (peptide)
peptide: AVAEIQLMHQRAKWGLEIELLKLLLSLLKEYI
B13: R2-52 (peptide)
peptide: GIAVITLMLLRAYLELLEELVKILHELLRRYH
B14: R2-35 (peptide)
peptide: AVAEIQLMHQRAKWGVELQLKVDLRRILEDVY
B15: R2-42 (peptide)
peptide: AVAEIQLMHQRAKWAIQEIGIKITRELLERYL
B16: I1 (R1-100) (peptide)
peptide: AVAEIQLMHQRAKWELEYELFEMFLKLLEEIF
B17: R2-50 (peptide)
peptide: GVAMLQIMHDLAKIKQELELKDSMKKILEDVL
B18: R2-27 (peptide)
peptide: AVAEIQLMHQRAKWKLDLELAVSLRKILEDVY
B19: R2-24 (peptide)
peptide: GLAALTIGLLRAKLRAEYELREMLLRLLEEIF
B20: R1-94 (peptide)
peptide: VDFEIQLMQQRAQWIADYRIREFLDKLIAEIF
B21: R2-44 (peptide)
peptide: AVAEIQLMHQRAKWSLREELEKLLKELLKEYI
B22: R2-37 (peptide)
peptide: AVAEIQLMHQRAKWEIQEIGIKITLELLKEYI
B23: R2-25 (peptide)
peptide: AVAEIQLMHQRAKWKLELELKVKLLEILKDVY
B24: R2-34 (peptide)
peptide: AVAEIQLMHQRAKWRLEIELLKKLKEILKDVY
B25: R2-43 (peptide)
peptide: AVAEIQLMHQRAKWELQEIGIAITLRLLARYI
B26: R2-48 (peptide)
peptide: AVAEIQLMHQRAKWKILEELLKILIDLLKQYI
B27: R2-40 (peptide)
peptide: AVAEIQLMHQRAKWDLLIELVKLLHELLKEYI
B28: R2-38 (peptide)
peptide: AVAEIQLMHQRAKWELLEELLKILLELLKEYI
B29: R2-31 (peptide)
peptide: AVAEIQLMHQRAKWGLDLELRARLREILRDVY
B30: R2-26 (peptide)
peptide: AVAEIQLMHQRAKWGLELELKEKLRKILEDVY
B31: R2-30 (peptide)
peptide: AVAEIQLMHQRAKWLEELKLKDDLRKILEDVY
B32: R2-36 (peptide)
peptide: AVAEIQLMHQRAKWKLELELKAFLDQILKDVL
B33: R2-41 (peptide)
peptide: AVAEIQLMHQRAKWEIQEIGIKITLDLLQTLK
B34: R2-51 (peptide)
peptide: GIAVITLMVLRALLELQEIGRKITLELLKEYI

Legend:
Experiment in all cases: cell-based or functional assay
[1] = target: Flag-PTHR1-YFP (parathyroid hormone receptor 1) expressed in transfected HEK293T cells (human) (UniProt Q03431)
[2] = target: T1, PTHR1 on CHO-K1/Ga15/PTHR1 cells
[3] = target: T2, Flag-PTHR1-YFP

Molecule | cAMP accumulation (HTRF): -log10EC50 [2] | cAMP accumulation (HTRF): Emax [2] | arrestin 2 recruitment (BRET): -log10EC50 [3] | arrestin 2 recruitment (BRET): Emax [3] | further results
PTH 7-36 antago (peptide) |  |  |  |  | arrestin 1, plate 25: -log10EC50 [1]: -6.98 -log10EC50; arrestin 1, plate 25: Emax [1]: 7.68; arrestin 2, plate 26: -log10EC50 [1]: -7.33 -log10EC50; arrestin 2, plate 26: Emax [1]: 8.04
B1 | -7.03 -log10EC50 (as headed) | 99.2% |  |  | 
B2 | -8.01 -log10EC50 (as headed) | 99.7% |  |  | 
B3 | -7.22 -log10EC50 (as headed) | 97.5% |  |  | 
B4 | -7.23 -log10EC50 (as headed) | 99.3% |  |  | 
B5 | -7.88 -log10EC50 (as headed) | 95% |  |  | 
B6 | -5.79 -log10EC50 (as headed) | 99.9% |  |  | 
B7 |  |  | -6.73 -log10EC50 (as headed) | 8.34 | 
B8 |  |  | -7.7 -log10EC50 (as headed) | 6.88 | 
B9 | -6.51 -log10EC50 (as headed) | 101% |  |  | 
B10 | -9.23 -log10EC50 (as headed) | 102% | -5.77 -log10EC50 (as headed) | 15.2 | 
B11 | -7.1 -log10EC50 (as headed) | 96.9% |  |  | 
B12 | -11.1 -log10EC50 (as headed) | 729% | -5.76 -log10EC50 (as headed) | 16.1 | 
B13 | -5.59 -log10EC50 (as headed) | 97.4% |  |  | 
B14 | -8.01 -log10EC50 (as headed) | 97% | -3.46 -log10EC50 (as headed) | 35.8 | 
B15 | -6.54 -log10EC50 (as headed) | 97.6% | -8.37 -log10EC50 (as headed) | 7.53 | 
B16 | -7.28 -log10EC50 (as headed) | 99.9% |  |  | 
B17 | -6.24 -log10EC50 (as headed) | 99.8% | -10.5 -log10EC50 (as headed) | 6.45 | 

Molecule | cAMP accumulation (HTRF): -log10EC50 [2] | cAMP accumulation (HTRF): Emax [2] | arrestin 2 recruitment (BRET): -log10EC50 [3] | arrestin 2 recruitment (BRET): Emax [3] | further results
B18 | -7.91 -log10EC50 (as headed) | 93.3% |  |  | 
B19 | -10.4 -log10EC50 (as headed) | 81.4% |  |  | 
B20 | -10.1 -log10EC50 (as headed) | 90.8% |  |  | 
B21 | -10.4 -log10EC50 (as headed) | 106% | -8.46 -log10EC50 (as headed) | 7.63 | 
B22 | -9.09 -log10EC50 (as headed) | 96.4% | -5.86 -log10EC50 (as headed) | 17 | 
B23 | -7.89 -log10EC50 (as headed) | 96% |  |  | 
B24 | -6.98 -log10EC50 (as headed) | 96.1% | -8.41 -log10EC50 (as headed) | 7.61 | 
B25 | -10.5 -log10EC50 (as headed) | 309% | -8.03 -log10EC50 (as headed) | 7.45 | 
B26 | -7.19 -log10EC50 (as headed) | 98.8% | -15.2 -log10EC50 (as headed) | 6.42 | 
B27 | -11.2 -log10EC50 (as headed) | 95.1% | -5.85 -log10EC50 (as headed) | 13.9 | 
B28 | -6.91 -log10EC50 (as headed) | 99.1% |  |  | 
B29 | -14 -log10EC50 (as headed) | 104% |  |  | 
B30 | -7.07 -log10EC50 (as headed) | 96.8% |  |  | 
B31 | -7.1 -log10EC50 (as headed) | 97.2% |  |  | 
B32 | -8.32 -log10EC50 (as headed) | 99% | -8.7 -log10EC50 (as headed) | 7.53 | 
B33 | -10.3 -log10EC50 (as headed) | 98.2% |  |  | 
B34 | -9.98 -log10EC50 (as headed) | 3.99% |  |  | 
